Test results published in publication PMC6026317, “Molecular elements in FGF19 and FGF21 defining KLB/FGFR activity and specificity” (Molecular Metabolism, 2018).
“Also recorded” adds a separate entry of the source.

Assays:
293/KLB cells = experiment: Agonist pERK AlphaLISA assay in 293/KLB cells; type: cell-based, human; conditions: 10 min at 37° C, n = 3
Protocol: (§1) 293T HEK cells expressing KLB (or KL) or Hep3B cells were plated to 5–6 x 10^4 cells/well density in 96-well cell culture plate coated with poly-D-Lysine (Corning). The cells were serum starved for four hours in 0.1% BSA fraction V (ThermoFisher) containing media prior to treatment with protein and/or an antagonist peptide at the mentioned concentrations for 10 min at 37° C. For the antagonist assays, a chosen fixed dose within the range of 0.8–30 nM (depending on the cell type) of FGF21 or FGF19 stimulant was added to all the wells. BaF3 cells expressing human KLB/FGFR1c or human KLB/FGFR4-1c chimera were seeded at 5 × 10^5 cells/well density in 96-well cell culture plate and serum-starved overnight. FGF21/19 analogs were diluted in 0.02% Tween-20 containing RPMI1640 medium and the cells were treated for 15 min at 37° C. Following the respective cell treatments, the cells were lysed (with lysis buffer provided in the kit) for 10 min at room temperature on a shaker and the lysate was mixed with reaction mixture (consisting of reaction buffer, activation buffer, acceptor and donor beads provided in the kit). Phosphorylated ERK1/2 (pERK) levels were subsequently recorded by EnSpire Alpha or Envision Multilabel plate reader (Perkin Elmer). The cell assays corresponding to 293/KLB or Hep3B cells were carried out with AlphaLISA SureFire Ultra pERK1/2 (Thr 202/Tyr204) kit (Perkin Elmer), and BaF3 cells were done using AlphaScreen pERK1/2 (Thr202/Tyr204) kit (Perkin Elmer).
All cellular phosphorylation data were analyzed using 3-parameter non-linear regression curve in GraphPad Prism 7. Graphs are represented as relative maximal (100%) response of the positive control. All other test analog signals were adjusted accordingly as % values. […] Each peptide and protein analog was tested in triplicates in three independent experiments (n = 3), and normalized graphs plotted are expressed as mean ± SD unless otherwise noted.

Hep3B cells = experiment: Agonist pERK AlphaLISA assay in Hep3B cells; type: cell-based, human; conditions: 10 min at 37° C, n = 3
Protocol: as §1, with “Following the respective cell treatments, the cells were lysed (with lysis buffer provided in the kit) for 10 min at room temperature on a shaker and the lysate was mixed with reaction mixture (consisting of reaction buffer, activation buffer, acceptor and donor beads provided in the kit).” left out, “The cell assays corresponding to 293/KLB or Hep3B cells were carried out with AlphaLISA SureFire Ultra pERK1/2 (Thr 202/Tyr204) kit (Perkin Elmer), and BaF3 cells were done using AlphaScreen pERK1/2 (Thr202/Tyr204) kit (Perkin Elmer).” left out
(§2) All cellular phosphorylation data were analyzed using 3-parameter non-linear regression curve in GraphPad Prism 7. […] Each peptide and protein analog was tested in triplicates in three independent experiments (n = 3), and normalized graphs plotted are expressed as mean ± SD unless otherwise noted.

[1] = test system: diet-induced obese (DIO) mice; experiment: In vivo FGF21 agonism study in DIO mice; parameters: species or system mouse; conditions: for Body weight change: daily sc 0.1, 0.3 or 1 mg/kg for 7 days, n = 8
From the text: (§3) All animal studies were approved by and performed according to the guidelines of the Institutional Animal Care and Use Committee of the University of Cincinnati (Cincinnati, USA). Eight-week old male C57BL/6J mice (Jackson Laboratories) were given ad libitum access to either a chow diet (lean mice), or a high-fat high-sugar diet (HFD, DIO mice) containing 58% kcal from fat (Research Diets, catalog# D12331). For DIO mice, animals were maintained on the HFD for a minimum of 3 months prior to initiation of the pharmacological studies. The mice were maintained at 22 °C on a 12-h light–dark cycle with free access to water. Before the beginning of the studies, mice were randomized into treatment groups according to body weight. All injections and tests were performed during the light cycle with a group size of n = 8.
Mice were administered vehicle, FGF21 or FGF21-19A (0.1, 0.3 and 1 mg/kg) daily via sc injections and their body weight measurements were made on alternative days. At the end of 7 day treatment, blood was collected from tail veins using EDTA-coated microvette tubes (Sarstedt), immediately placed on ice, centrifuged at 5000 × g and 4 °C for 10 min, and plasma was stored at −80 °C until analyzed. Triglycerides and cholesterol levels were analyzed using colorimetric assay (Thermo Fisher).
Statistical analyses for in vivo experiments were performed on data using a one- (Figure 5A,B and 5D) or two-way (Figure 5C) ANOVA followed by Tukey post hoc multiple comparison analysis. All results are presented as mean ± SEM, n = 5–8, and P < 0.05 was considered significant. Group size estimations were based upon a power calculation to minimally yield an 80% chance to detect a significant difference in body weight of P < 0.05.

lean (C57BL/6J) mice = experiment: In vivo peptide antagonism study, cFos and EGR1 mRNA in pancreas and eWAT; parameters: species or system mouse; conditions: 1 mg/kg sc, one hour, WAT and pancreas
From the text: as §3
Mice were administered vehicle, FGF21 (1 mg/kg), or FGF19 (1 mg/kg) alone or in combination with 19C26,A^26 (30 mg/kg), (dosed 15 min prior to FGF21 or FGF19 administration) via sc injections. One-hour post FGF21 or FGF19 dosing, the mice were sacrificed and their plasma, pancreas, and epididymal white adipose tissue (eWAT) were harvested for analyses. […] Following reverse transcription, levels of cFos and early growth response-1 (EGR1) mRNA levels were subsequently probed by quantitative PCR (ThermoFisher) and analyzed by ΔΔCT method. […]

human FGFR1/KLB = experiment: Agonist pERK AlphaScreen assay in BaF3 cells, FGFR1/KLB; type: cell-based; conditions: BaF3 cells co-expressing KLB and FGFR1; 15 min at 37° C; n = 3
From the text: (§4) For generating receptor specific BaF3 cell line, human FGFR1c cDNA was cloned into pMXs-IRES-Puro vector (Cell Biolabs) to generate the expression plasmid pMX-FGFR1c-IRES-Puro. Human FGFR4 sequence was re-engineered to enhance signaling by constructing chimeric cDNA encoding the extracellular region of FGFR4 fused to the intracellular region and tyrosine kinase domain of FGFR1c, and the chimeric sequence was cloned into pMX-IRES-Puro vector to generate the expression plasmid pMX-chimeric FGFR4-1c-IRES-Puro. Human KLB cDNA was cloned into pMXs-IRES-Neo vector (Cell Biolabs) to generate expression plasmid pMX-KLB-IRES-Neo. BaF3 cells were transfected with pMX-FGFR1c-IRES-Puro and pMX- FGFR4-1c chimera-IRES-Puro expression plasmids respectively by electroporation (Xcell machine, Bio-Rad, 950 μF, 370V). Cells were selected with media containing 1 μg/ml Puromycin for 10–12 days. […]
(§5) 293T HEK cells expressing KLB (or KL) or Hep3B cells were plated to 5–6 x 10^4 cells/well density in 96-well cell culture plate coated with poly-D-Lysine (Corning). […] Phosphorylated ERK1/2 (pERK) levels were subsequently recorded by EnSpire Alpha or Envision Multilabel plate reader (Perkin Elmer). […]
(§6) All cellular phosphorylation data were analyzed using 3-parameter non-linear regression curve in GraphPad Prism 7. […]

[2] = test system: human FGFR4-1c chimera/KLB; experiment: Agonist pERK AlphaScreen assay in BaF3 cells, FGFR4-1c chimera/KLB; type: cell-based; conditions: BaF3 cells co-expressing KLB and FGFR4-1c chimera; 15 min at 37° C; n = 3
From the text: as §4, §5, §6

293/KL cells = experiment: Agonist pERK assay in 293/KL cells; type: cell-based, human; conditions: n = 3
Protocol: as §1, with “Following the respective cell treatments, the cells were lysed (with lysis buffer provided in the kit) for 10 min at room temperature on a shaker and the lysate was mixed with reaction mixture (consisting of reaction buffer, activation buffer, acceptor and donor beads provided in the kit).” left out, “The cell assays corresponding to 293/KLB or Hep3B cells were carried out with AlphaLISA SureFire Ultra pERK1/2 (Thr 202/Tyr204) kit (Perkin Elmer), and BaF3 cells were done using AlphaScreen pERK1/2 (Thr202/Tyr204) kit (Perkin Elmer).” left out
as §2

[3] = daily sc 0.1, 0.3 or 1 mg/kg, day 7

B1: FGF21,A^164: Native FGF21 with D164A substitution (protein, UniProt Q9NSA1 29-209, looked up, variant D164A)
Fibroblast growth factor 21: HPIPDSSPLLQFGGQVRQRYLYTDDAQQTEAHLEIREDGTVGGAADQSPESLLQLKALKPGVIQILGVKTSRFLCQRPDGALYGSLHFDPEACSFRELLLEDGYNVYQSEAHGLPLHLPGNKSPHRDPAPRGPARFLPLPGLPPALPEPPGILAPQPPDVGSSAPLSMVGPSQGRSPSYAS
For B1, the “pERK agonist activity, in words” value (293/KLB cells) was “only negligible activity”.

B2: FGF21-19A: Hybrid protein: FGF21 1–156 fused with FGF19 169–194 (K194A) (protein)
chain: HPIPDSSPLLQFGGQVRQRYLYTDDAQQTEAHLEIREDGTVGGAADQSPESLLQLKALKPGVIQILGVKTSRFLCQRPDGALYGSLHFDPEACSFRELLLEDGYNVYQSEAHGLPLHLPGNKSPHRDPAPRGPARFLPLPGLPPALPEPPGILAPQPLETDSMDPFGLVTGLEAVRSPSFEA
modifications: left off: SUMO (yeast), end not stated, cleaved | His6, end not stated, state not stated
For B2, the “pERK agonist activity, in words” value (Hep3B cells) was “significantly more potent when compared to native FGF21; also recorded: ten-fold-enhanced in vitro potency”, the Body weight change [1] was “dramatically more potent at each corresponding dose” and the Circulating insulin [1, 3] was “potently reduced circulating insulin when compared to vehicle treatment”. The “Fasted plasma glucose, difference to native FGF21” value [1, 3] was “statistically different only at the 0.3 mg/kg dose”, the Plasma cholesterol ([1]; daily sc 0.1, 0.3 or 1 mg/kg, end of 7 day treatment) was “plasma cholesterol was lowered” and the “pERK agonist activity, in words” value (293/KLB cells) was “significantly more potent when compared to native FGF21; also recorded: ten-fold-enhanced in vitro potency”.

B3: FGF21: Human FGF21 (UniProtKB #Q9NSA1 29–209, designated 1–181) (protein)
chain: HPIPDSSPLLQFGGQVRQRYLYTDDAQQTEAHLEIREDGTVGGAADQSPESLLQLKALKPGVIQILGVKTSRFLCQRPDGALYGSLHFDPEACSFRELLLEDGYNVYQSEAHGLPLHLPGNKSPHRDPAPRGPARFLPLPGLPPALPEPPGILAPQPPDVGSSDPLSMVGPSQGRSPSYAS
modifications: left off: SUMO (yeast), end not stated, cleaved | His6, end not stated, state not stated
For B3, the “cFos and EGR1 transcriptional activity, FGF alone” value (lean (C57BL/6J) mice) was “induced robust transcriptional activity in each tissue”, the “pERK agonist activity, in words” value (human FGFR1/KLB) was “active” and the Body weight change [1] was “induced weight loss in a dose-dependent manner”. The Circulating insulin [1, 3] was “potently reduced circulating insulin when compared to vehicle treatment”, the “pERK agonist activity, in words” value [2] was “minimal signaling” and the “pERK agonist activity, in words” value (293/KLB cells) was “nanomolar potencies”.

B4: FGF23: FGF23 (#Q9GZV9: 25–251) (protein, UniProt Q9GZV9 25-251, looked up)
Fibroblast growth factor 23: YPNASPLLGSSWGGLIHLYTATARNSYHLQIHKNGHVDGAPHQTIYSALMIRSEDAGFVVITGVMSRRYLCMDFRGNIFGSHYFDPENCRFQHQTLENGYDVYHSPQYHFLVSLGRAKRAFLPGMNPPPYSQFLSRRNEIPLIHFNTPIPRRHTRSAEDDSERDPLNVLKPRARMTPAPASCSQELPSAEDNSPMASDPLGVVRGGRVNTHAGGTGPEGCRPFAKFI
With B4 the “pERK agonist activity, in words” value (293/KL cells) was “significantly more potent than FGF21”.
